The source of these data is patent US20240400677A1.

B1: Antibody 31 (scFv, V domains shown)
VH: QVQLVQSGAEVKKPGASVKVSCKASGGTFRSYAISWVRQAPGQGLEWMGWMNPNSGNTGYAQKFQGRVTMTRDTSTSTVYMELSSLRSEDTAVYYCARESVLKGGMDVWGQGTTVTVSS
VL: DIVMTQSPDSLAVSLGERATINCRSSQSLFHSSTNANNLAWYQQKPGQPPKLLIYWASTRESGVPDRFSGSGSGTDFTLTISSLQAEDVAVYYCQQYYITPLTFGQGTRLEIK
B2: Antibody 28 (scFv, V domains shown)
VH: QVQLVQSGAEVKKPGASVKVSCKASGYTFTSYNIHWVRQAPGQGLEWMGWISAYNGNTNYAQKLQGRVTMTRDTSTSTVYMELSSLRSEDTAVYYCALDGGQLGVAFDIWGQGTMVTVSS
VL: DIQMTQSPSSLSASVGDRVTITCRASQGISNWLAWYQQKPGKAPKLLIYDASNLDAGVPSRFSGSGSGTDFTLTISSLQPEDFATYYCQQANSLPLTFGGGTKVEIK
B3: Antibody 37 (scFv, V domains shown)
VH: QVQLVQSGAEVKKPGASVKVSCKASGYTLNNYDINWVRQAPGQGLEWMGWISGYNGNTNYAQKLQGRVTMTRDTSTSTVYMELSSLRSEDTAVYYCARVGSSWEENDQWGQGTLVTVSS
VL: DIQMTQSPSSLSASVGDRVTITCRASQSISRWLAWYQQKPGKAPKLLIYAASSLESGVPSRFSGSGSGTDFTLTISSLQPEDFATYYCQQTHSFPLTFGGGTKVEIK
B4: Antibody 11 (scFv, V domains shown)
VH: QVQLVQSGAEVKKPGASVKVSCKASGYTFTSYDINWVRQAPGQGLEWMGWMNPNSGNTGYAQKFQGRVTMTRDTSTSTVYMELSSLRSEDTAVYYCAKGAVAGTYYYYGMDVWGQGTTVTVSS
VL: DIQMTQSPSSLSASVGDRVTITCRASQTINNYLNWYQQKPGKAPKLLIYDASNLETGVPSRFSGSGSGTDFTLTISSLQPEDFATYYCQQANSFPLTFGQGTKVEIK

A value given as a limit tells only on which side of the number the result lay.

The target in the test is human SIRPα V1-His monomer protein (human) (UniProt P78324). Description: BLI Octet, V5-scFv PPE captured, SIRP-His 500 nM.
Chain of human SIRPα V1-His monomer protein (human) (P78324 31-370): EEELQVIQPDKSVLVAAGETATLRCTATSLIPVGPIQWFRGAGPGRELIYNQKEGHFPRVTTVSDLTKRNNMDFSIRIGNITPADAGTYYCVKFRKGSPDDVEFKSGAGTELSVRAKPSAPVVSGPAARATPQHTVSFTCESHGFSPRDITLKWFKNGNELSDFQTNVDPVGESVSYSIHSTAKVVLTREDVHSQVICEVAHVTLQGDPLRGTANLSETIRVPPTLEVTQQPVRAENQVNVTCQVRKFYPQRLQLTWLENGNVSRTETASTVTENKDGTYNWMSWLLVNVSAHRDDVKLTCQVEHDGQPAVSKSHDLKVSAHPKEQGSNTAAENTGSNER
Regarding B1, the kdis is > 0.01 s⁻¹.

Consider B2, for which the kdis was > 0.01 s⁻¹.

For B3, the kdis is > 0.01 s⁻¹.

Turning to B4, the kdis is > 0.01 s⁻¹.
